The source of these data is FireProtDB.

The labels stand for the following.
B1: Guanyl-specific ribonuclease T1, P00651 (parent)
chain: MMYSKLLTLTTLLLPTALALPSLVERACDYTCGSNCYSSSDVSTAQAAGYQLHEDGETVGSNSYPHKYNNYEGFDFSVSSPYYEWPILSSGDVYSGGSPGADRVVFNENNQLAGVITHTGASGNNFVECT
B2: DNA-Binding protein, P69542 (parent)
chain: MIKVEIKPSQAQFTTRSGVSRQGKPYSLNEQLCYVDLGNEYPVLVKITLDEGQPAYAPGLYTVHLSSFKVGQFGSLMIDRLRLVPAK
B3: Beta-xylanase, O68541 (parent)
chain: MNLSRRQLLALTSAGIAMGQASKLAAATKAAEQTGLKSAYKDNFLIGAALNATIASGADERLNTLIAKEFNSITPENCMKWGVLRDAQGQWNWKDADAFVAFGTKHNLHMVGHTLVWHSQIHDEVFKNADGSYISKAALQKKMEEHITTLAGRYKGKLAAWDVVNEAVGDDLKMRDSHWYKIMGDDFIYNAFTLANEVDPKAHLMYNDYNIERTGKREATVEMIERLQKRGMPIHGLGIQGHLGIDTPPIAEIEKSIIAFAKLGLRVHFTELDVDVLPSVWELPVAEVSTRFEYKPERDPYTKGLPQEMQDKLAKRYEDLFKLFIKHSDKIDRATFWGVSDDASWLNGFPIPGRTNYPLLFDRKLQPKDAYFRLLDLKR
B4: Superoxide dismutase [Cu-Zn], P00445 (parent)
chain: MVQAVAVLKGDAGVSGVVKFEQASESEPTTVSYEIAGNSPNAERGFHIHEFGDATNGCVSAGPHFNPFKKTHGAPTDEVRHVGDMGNVKTDENGVAKGSFKDSLIKLIGPTSVVGRSVVIHAGQDDLGKGDTEESLKTGNAGPRPACGVIGLTN
B5: Phosphoglycerate kinase 1, P00558 (parent)
chain: MSLSNKLTLDKLDVKGKRVVMRVDFNVPMKNNQITNNQRIKAAVPSIKFCLDNGAKSVVLMSHLGRPDGVPMPDKYSLEPVAVELKSLLGKDVLFLKDCVGPEVEKACANPAAGSVILLENLRFHVEEEGKGKDASGNKVKAEPAKIEAFRASLSKLGDVYVNDAFGTAHRAHSSMVGVNLPQKAGGFLMKKELNYFAKALESPERPFLAILGGAKVADKIQLINNMLDKVNEMIIGGGMAFTFLKVLNNMEIGTSLFDEEGAKIVKDLMSKAEKNGVKITLPVDFVTADKFDENAKTGQATVASGIPAGWMGLDCGPESSKKYAEAVTRAKQIVWNGPVGVFEWEAFARGTKALMDEVVKATSRGCITIIGGGDTATCCAKWNTEDKVSHVSTGGGASLELLEGKVLPGVDALSNI
B6: DNA-binding transcriptional dual regulator CRP, P0ACJ8 (parent)
chain: MVLGKPQTDPTLEWFLSHCHIHKYPSKSTLIHQGEKAETLYYIVKGSVAVLIKDEEGKEMILSYLNQGDFIGELGLFEEGQERSAWVRAKTACEVAEISYKKFRQLIQVNPDILMRLSAQMARRLQVTSEKVGNLAFLDVTGRIAQTLLNLAKQPDAMTHPDGMQIKITRQEIGQIVGCSRETVGRILKMLEDQNLISAHGKTIVVYGTR
B7: Cyanovirin-N, P81180 (parent)
chain: LGKFSQTCYNSAIQGSVLTSTCERTNGGYNTSSIDLNSVIENVDGSLKWQPSNFIETCRNTQLAGSSELAAECKTRAQQFVSTKINLDDHIANIDGTLKYE
B8: L-asparaginase 2, P00805 (parent)
chain: MEFFKKTALAALVMGFSGAALALPNITILATGGTIAGGGDSATKSNYTVGKVGVENLVNAVPQLKDIANVKGEQVVNIGSQDMNDNVWLTLAKKINTDCDKTDGFVITHGTDTMEETAYFLDLTVKCDKPVVMVGAMRPSTSMSADGPFNLYNAVVTAADKASANRGVLVVMNDTVLDGRDVTKTNTTDVATFKSVNYGPLGYIHNGKIDYQRTPARKHTSDTPFDVSKLNELPKVGIVYNYANASDLPAKALVDAGYDGIVSAGVGNGNLYKSVFDTLATAAKTGTAVVRSSRVPTGATTQDAEVDDAKYGFVASGTLNPQKARVLLQLALTQTKDPQQIQQIFNQY

The variants in one series derive from B1. The note with it: Aspergillus oryzae (strain ATCC 42149 / RIB 40); pH 7; Thermal; Absorbance; Sodium cacodylate 10 mM; reversible: yes; structure 1RN1; whole UniProt chain shown.
A word on the Tm: it is the temperature at the midpoint of the melting transition. On to W85Y, for which the Tm is 53.4 °C and the “change of melting temperature, mutant - wild type (higher = more stable)” value (shortened to “change of melting temperature, mutant”) is -4.2 °C.

Still in this series, the particulars now being: Aspergillus oryzae (strain ATCC 42149 / RIB 40); pH 7; Thermal; Absorbance; Sodium cacodylate-D2O 100 mM; reversible: yes; structure 1RN1; whole UniProt chain shown.
W85Y: the Tm stood at 65 °C and the “change of melting temperature, mutant” value was found to be 20 °C.

The variants in another series derive from B2. The note with it: Enterobacteria phage fd; pH 7; 25 °C; GdnHCl; CD; MOPS 50 mM; NaCl 100 mM; reversible: yes; structure 1VQB; whole UniProt chain shown.
Consider L32W, for which the unfolding free energy was found to be 2.8 kcal/mol.
T62V: the unfolding free energy was found to be 1.3 kcal/mol.
On the same count and under the same terms, to K24V belongs 0.8 kcal/mol.
Same read-out and setting: to K69M belongs 0.1 kcal/mol; to T48V, 0 kcal/mol.
Take E30M: the unfolding free energy was 0.6 kcal/mol.

A further series covers variants of B3. The note with it: Cellvibrio mixtus; pH 7.5; Thermal; DSC; MOPS 20 mM; CaCl2 1 mM; reversible: No; structure 1UR1; whole UniProt chain shown.
Turning to A334V G348D, the Tm worked out at 66.6 °C and the “change of melting temperature, mutant” value came out at 8 °C.
On the same counts, the results for A334V are 62.1 °C and 3.5 °C.
On the same counts, the results for G348D are 64.6 °C and 6 °C.

The variants in the next series derive from B4. The note with it: Saccharomyces cerevisiae (strain ATCC 204508 / S288c); Thermal; Fluorescence; structure 1JK9; whole UniProt chain shown.
Take G94A: the “change of melting temperature, mutant” value was determined as 20 °C.

Variants of B5 are the subject of a further series. The note with it: Homo sapiens; pH 7.4; 25 °C; Urea; CD; HEPES 20mM; NaCl 200 mM; transition: 2; reversible: Yes; structure 2WZB; whole UniProt chain shown.
For T378P, the “ddG of mutation (higher = less stable)” value came out at 4.8 kcal/mol, the denaturant m value came to 1.5 kcal/mol/M, the “denaturant midpoint (higher = more stable)” value amounted to 2.28 M and the unfolding free energy is 3.5 kcal/mol.
On the same counts, the results for E252A are 0.7 kcal/mol, 3.2 kcal/mol/M, 2.37 M and 7.6 kcal/mol.

In the next series the parent is B6. The note with it: Escherichia coli (strain K12); pH 7.9; 20 °C; Thermal; CD; Tris-HCl 50 mM; KCl 100 mM; reversible: yes; structure 1G6N; whole UniProt chain shown.
With S129A, the “ddG of mutation (higher = less stable)” value worked out at 0.26 kcal/mol and the unfolding free energy came out at 7.06 kcal/mol.

Another series covers variants of B7. The note with it: Nostoc ellipsosporum; pH 6; Thermal; CD; Sodium phosphate 10 mM; structure 1N02; whole UniProt chain shown.
Take P51G: the Tm is 50.2 °C and the “change of melting temperature, mutant” value was found to be 1.7 °C.

Variants of B8 are the subject of another series. The note with it: Escherichia coli (strain K12); pH 7.4; 25 °C; Urea; Fluorescence; Tris-HCl 50 mM; structure 3ECA; whole UniProt chain shown.
S144A: the unfolding free energy amounted to 12.4 kcal/mol.
Turning to T34S, the unfolding free energy was found to be 11.2 kcal/mol.
Still for that read-out and setting: for T34A the value was 11.5 kcal/mol; for T141A, 11.5 kcal/mol.
